According to PMC2794542:

Target: full length LRRK2, FLAG-tagged and V5-tagged copies co-expressed (human) (UniProt Q5S007)
Test: co-IP; 293T cells co-transfected with FLAG- and V5-LRRK2; gel filtration fractions 20-23 (α-complex, ~600 kDa) pooled, immunoprecipitated with anti-FLAG, blotted with anti-FLAG and anti-V5, densitometry
Conditions: remark: other sources report otherwise

Substance: full length LRRK2, FLAG-tagged and V5-tagged copies co-expressed, Q5S007 1-2527
- ratio of FLAG-LRRK2 to V5-LRRK2 in the anti-FLAG IP: 1.87
- stoichiometry N: 2
